Experimental data as given in patent US20210145860A1.

Target: green fluorescent protein (GFP) [GFP: P42212]
Assay: cell-based or functional assay

Sequence of E3-ubiquitin ligase encoded by mRNA Construct G of Table 1 (ER signal-vhhGFP4-cereblon-FLAG-ER retention sequence) (Q96SW2 whole entry): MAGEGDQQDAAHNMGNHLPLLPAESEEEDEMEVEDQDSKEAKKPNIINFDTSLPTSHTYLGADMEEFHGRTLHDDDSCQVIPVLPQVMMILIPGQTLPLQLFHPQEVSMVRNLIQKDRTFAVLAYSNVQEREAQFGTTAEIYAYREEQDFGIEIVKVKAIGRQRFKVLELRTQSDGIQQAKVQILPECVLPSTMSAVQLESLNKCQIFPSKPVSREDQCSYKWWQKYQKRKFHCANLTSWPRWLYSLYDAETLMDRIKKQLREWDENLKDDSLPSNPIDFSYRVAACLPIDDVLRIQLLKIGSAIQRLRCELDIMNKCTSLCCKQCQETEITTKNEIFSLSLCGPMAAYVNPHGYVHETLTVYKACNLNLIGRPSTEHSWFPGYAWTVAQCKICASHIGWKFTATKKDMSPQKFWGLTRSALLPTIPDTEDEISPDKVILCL

decrease in GFP mean fluorescence intensity (MFI), flow cytometry of HeLa cells at 10:1 Construct G:GFP RNA: 46%
Substance: E3-ubiquitin ligase encoded by mRNA Construct G of Table 1 (ER signal-vhhGFP4-cereblon-FLAG-ER retention sequence) (from UniProt Q96SW2 1-442)
